The results in this text go back to paper PMC8850660, “The P300 acetyltransferase inhibitor C646 promotes membrane translocation of insulin receptor protein substrate and interaction with the insulin receptor” (The Journal of Biological Chemistry, 2022).

The assay addresses unphosphorylated beta subunit of the insulin receptor (IRβ), recombinant (UniProt P06213). Description: SPR; Biacore T200, unphosphorylated IRβ immobilised on a CM5 chip; same amounts of IRS1 or IRS2 injected together with different (nM) concentrations of C646; HBS-P buffer (10 mM Hepes, 150 mM NaCl, 0.05% P20, pH 7.4), 30 μl/min, 25 °C; global fit to 1:1 Langmuir model.

Sequence of unphosphorylated beta subunit of the insulin receptor (IRβ), recombinant (P06213 763-1382): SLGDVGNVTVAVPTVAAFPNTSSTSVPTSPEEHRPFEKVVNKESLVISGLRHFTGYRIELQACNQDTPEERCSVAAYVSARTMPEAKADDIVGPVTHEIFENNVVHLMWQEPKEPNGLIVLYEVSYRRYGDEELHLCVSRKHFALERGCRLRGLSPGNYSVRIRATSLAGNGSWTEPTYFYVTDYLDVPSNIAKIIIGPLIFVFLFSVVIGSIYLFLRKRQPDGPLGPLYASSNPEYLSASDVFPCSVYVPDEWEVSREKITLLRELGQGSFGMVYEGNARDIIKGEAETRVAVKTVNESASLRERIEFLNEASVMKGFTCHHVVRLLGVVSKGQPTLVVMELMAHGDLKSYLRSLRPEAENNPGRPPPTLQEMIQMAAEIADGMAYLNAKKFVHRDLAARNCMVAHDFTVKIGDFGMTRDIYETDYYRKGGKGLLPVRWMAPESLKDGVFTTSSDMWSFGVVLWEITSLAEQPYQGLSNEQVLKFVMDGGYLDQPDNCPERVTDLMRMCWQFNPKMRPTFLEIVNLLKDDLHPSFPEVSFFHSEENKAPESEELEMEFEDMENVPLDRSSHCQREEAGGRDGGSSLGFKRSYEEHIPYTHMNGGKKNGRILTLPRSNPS

On to “purified IRS2 protein (insulin receptor substrate 2) (from UniProt P81122 1-1321) (natural protein)”, for which the KD with C646 came to 7.6e-12.
Then “purified IRS1 protein (insulin receptor substrate 1) (from UniProt P35569 1-1233) (natural protein)”, with 2.86e-13.
